Results on one molecule are retold here after publication PMC5100564 (Nucleic Acids Research, 2016).

The target in the assay is T1, recombinant GST-Scd6 (S. cerevisiae, UniProt P45978 1-349).
T1 sequence (looked up): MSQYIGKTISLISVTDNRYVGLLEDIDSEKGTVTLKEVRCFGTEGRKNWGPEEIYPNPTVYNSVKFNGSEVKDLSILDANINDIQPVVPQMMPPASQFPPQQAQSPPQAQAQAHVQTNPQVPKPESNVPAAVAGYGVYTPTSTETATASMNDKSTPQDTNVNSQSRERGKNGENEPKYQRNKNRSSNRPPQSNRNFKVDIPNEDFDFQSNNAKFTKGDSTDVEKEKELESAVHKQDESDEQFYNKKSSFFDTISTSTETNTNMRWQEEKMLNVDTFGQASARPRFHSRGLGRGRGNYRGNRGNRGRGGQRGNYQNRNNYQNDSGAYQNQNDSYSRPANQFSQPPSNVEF
The experiment in a line: pull-down.

B1: recombinant purified His-Hmt1 (enzyme, S. cerevisiae, UniProt P38074 1-348, looked up)
chain: MSKTAVKDSATEKTKLSESEQHYFNSYDHYGIHEEMLQDTVRTLSYRNAIIQNKDLFKDKIVLDVGCGTGILSMFAAKHGAKHVIGVDMSSIIEMAKELVELNGFSDKITLLRGKLEDVHLPFPKVDIIISEWMGYFLLYESMMDTVLYARDHYLVEGGLIFPDKCSIHLAGLEDSQYKDEKLNYWQDVYGFDYSPFVPLVLHEPIVDTVERNNVNTTSDKLIEFDLNTVKISDLAFKSNFKLTAKRQDMINGIVTWFDIVFPAPKGKRPVEFSTGPHAPYTHWKQTIFYFPDDLDAETGDTIEGELVCSPNEKNNRDLNIKISYKFESNGIDGNSRSRKNEGSYLMH
Take B1: the binding result is given as “binds”.
